# Reference: paper PMC6160459, “Identification of Peptide Mimotope Ligands for Natalizumab” (Scientific Reports, 2018)
# Read-outs that look alike come from different tables or passages of the source.
# B1: natalizumab: humanized recombinant IgG4 mAb that targets the α4 chain of α4β1 integrin and a4β7 integrin (antibody, V domains shown)
# VH: QVQLVQSGAEVKKPGASVKVSCKASGFNIKDTYIHWVRQAPGQRLEWMGRIDPANGYTKYDPKFQGRVTITADTSASTAYMELSSLRSEDTAVYYCAREGYYGNYGVYAMDYWGQGTLVTVSS
# VL: DIQMTQSPSSLSASVGDRVTITCKTSQDINKYMAWYQQTPGKAPRLLIHYTSALQPGIPSRFSGSGSGRDYTFTISSLQPEDIATYYCLQYDNLWTFGQGTKVEIK
# Legend:
# CD49d+ JeKo-1 cells = assay: CD49d+ cell based binding assay of heat exposed natalizumab (flow cytometry); conditions: 60 °C for 30 m, 1 h or 2 h; both GSH and non-GSH treated samples
# Method: Natalizumab-spiked samples in serum were diluted 25-fold in 5% FBS/DPBS/0.05% NaN3. CD49d+ JeKo-1 cells were suspended in 5% FBS/DPBS/0.05% NaN3, and 25 µl of suspension (10^5 cells) were added to 25 µl of diluted sample and incubated for 20 m on ice. Washes, secondary incubation, collection, and analysis proceeded as in the CD49d+ Cell Based Peptide Competition Assay protocol.
# (§1) Natalizumab was spiked into neat serum. The samples were split in half and 100 mM Glutathione reduced (GSH, Sigma-Aldrich, St. Louis MO) in H2O was added to one set to produce a final concentration of 3 mM GSH. Samples were then incubated overnight at 37 °C to induce arm exchange of IgG4 molecules. For ELISA assays, samples were subsequently diluted 250-fold in 2.5% BSA/TBST to produce a final serum concentration of 0.4%.
# (§2) Samples containing GSH treated or non-GSH treated natalizumab in serum were heated at 60 °C for 30 m, 1 h, or 2 h. Control samples were held at 4 °C. For ELISA assays, samples were subsequently diluted 250-fold in 2.5% BSA/TBST to produce a final serum concentration of 0.4%.
# [1] = Ntz-01 peptide ELISA of heat exposed natalizumab samples; assay type: binding; conditions: 60 °C for 30 m, 1 h or 2 h; particularly for the GSH treated samples; 0.4% serum
# Method: Wells of a NeutrAvidin-coated 96-well plate or 8-well strips (Thermo Fisher) were coated with 100 µl of biotinylated peptide at 7.5 µg/ml in molecular grade H2O (GE Healthcare Life Sciences, Logan, UT) for 1 h. Wells were washed five times with TBST. Wells were then blocked with 200 µl of 5% normal goat serum diluted from 10% normal goat serum (Thermo Fisher) in TBS for 1 h. Wells were washed five times with TBST. Antibody was spiked into 2.5% BSA in TBST (2.5% BSA/TBST) or into pooled defibrinated human AB serum (serum; Gemini, Woodland CA) diluted in 2.5% BSA/TBST. The final dilution of serum was 0.4% unless otherwise noted. Wells were incubated with 100 µl of antibody-spiked samples for 1 h and then washed five times with TBST. Bound natalizumab was detected with mouse anti-human IgG4 horse radish peroxidase (anti-IgG4-HRP; Abcam, Cambridge, MA) diluted 1:2000-1:5000 in TBST. Wells were incubated with 100 µl of diluted anti-IgG4-HRP for 30 m and then washed nine times with TBST. Turbo TMB substrate (Thermo Fisher) was added to the wells and allowed to develop for 12–15 m shielded from light. The reaction was stopped with 1 M H2SO4 (Thermo Fisher). Optical density (OD) was read at 450 nm on a Multiskan FC plate reader (Thermo Fisher) and data were analyzed with GraphPad Prism v5 or v7 software (Graphpad Software Inc, La Jolla CA).
# Natalizumab was spiked into neat serum. […]
# [2] = test system: natalizumab neutralizing anti-Idiotype (anti-Id) Fab fragment; assay: Anti-Id ELISA of heat exposed natalizumab samples; assay type: binding; conditions: 60 °C for 30 m, 1 h or 2 h; GSH or non-GSH treated samples; 0.4% serum
# Method: Wells of a Costar 96-well high binding plate were coated with 100 µl of natalizumab neutralizing anti-Idiotype (anti-Id) Fab fragment (Bio-Rad, Hercules CA) in phosphate-buffered saline (PBS; Corning Life Sciences) at 1 µg/ml overnight at 4 °C. The remining protocol proceeded as in peptide ELISA Protocol-1, with the following exceptions. 1) PBS/PBST was used in place of TBS/TBST (except for washes), 2) goat anti-human IgG HRP (Jackson Immunoresearch, West Grove PA) diluted 1:5000 was used as the secondary conjugate, and 3) TMB substrate was allowed to develop for 8–10 m.
# as §1, §2
# MS patients [3] = conditions: AFFIRM study; cited from earlier work
# Source text: Multiple sclerosis (MS) is a leading cause of neurologic disability that affects approximately 400,000 people in the US and 2.5 million worldwide. Natalizumab (marketed as Tysabri) is the top selling biologic drug indicated for MS and has been used to treat 177,800 patients worldwide as of November 2017[2]. […] Natalizumab is a humanized recombinant IgG4 mAb that targets the α4 chain of α4β1 integrin (also known as very late a ...
# MS patients [4] = conditions: cited from earlier work
# Source text: The immunosuppressive activity of natalizumab has been associated with opportunistic infection by John Cunningham (JC) virus which may lead to progressive multifocal leukoencephalopathy (PML), a serious and often-fatal opportunistic brain infection. Approximately 56–58% of MS patients are positive for anti-JC virus antibodies, which puts them at increased risk for developing PML while on natalizumab[5]–[7]. The estimated incidence of PML in patients positive for anti-JC virus antibodies is 3.87 per 1,000 patients after at least 1 month of natalizumab treatment. It increases to 11.1 per 1,000 p ... || The standard dosing regimen for natalizumab is 300 mg by IV infusion every 4 weeks. […] It has been postulated that high serum concentrations may increase the risk of PML[10],[11]. […] Conversely, low drug concentrations have been associated with a lack of natalizumab efficacy. Multiple enzyme-linked immunosorbent assays (ELISAs) to detect levels of circulating natal ...
# [5] = standard dosing, 300 mg by IV infusion every 4 weeks; cited from earlier work
# Method: The standard dosing regimen for natalizumab is 300 mg by IV infusion every 4 weeks. […] It has been postulated that high serum concentrations may increase the risk of PML[10],[11]. […] Conversely, low drug concentrations have been associated with a lack of natalizumab efficacy. Multiple enzyme-linked immunosorbent assays (ELISAs) to detect levels of circulating natal ...
molecule,measurement,setting,value
B1,functional cell binding with increased heat exposure,CD49d+ JeKo-1 cells,Decreased cell binding
same,binding with increased heat exposure by Ntz-01 peptide ELISA,[1],Decreased binding
same,changes in binding with heat exposure by anti-Id ELISA,[2],Changes in binding with heat exposure were not observed
same,reduction of sustained physical disability relative to placebo,MS patients [3],42%
same,estimated incidence of PML,MS patients [4]; JC virus antibody positive patients with prior use of immunosuppressants and long-term use of natalizumab (24–48 months),"11.1 per 1,000 patients"
same,decrease of PML risk,MS patients [4]; extended interval dosing (infusion every 5–12 weeks instead of every 4 weeks),94%
same,estimated incidence of PML,"MS patients [4]; patients positive for anti-JC virus antibodies, after at least 1 month of natalizumab treatment","3.87 per 1,000 patients"
same,variation of serum natalizumab concentrations,[5],over 100 fold
